From US20100041597A1 (published 2010)

T1: PKC-ζ (purified isoform) (Homo sapiens (Human), UniProt Q05513 1-592)
T1 construct: also called PKC-zeta; PKCzeta
T1 sequence: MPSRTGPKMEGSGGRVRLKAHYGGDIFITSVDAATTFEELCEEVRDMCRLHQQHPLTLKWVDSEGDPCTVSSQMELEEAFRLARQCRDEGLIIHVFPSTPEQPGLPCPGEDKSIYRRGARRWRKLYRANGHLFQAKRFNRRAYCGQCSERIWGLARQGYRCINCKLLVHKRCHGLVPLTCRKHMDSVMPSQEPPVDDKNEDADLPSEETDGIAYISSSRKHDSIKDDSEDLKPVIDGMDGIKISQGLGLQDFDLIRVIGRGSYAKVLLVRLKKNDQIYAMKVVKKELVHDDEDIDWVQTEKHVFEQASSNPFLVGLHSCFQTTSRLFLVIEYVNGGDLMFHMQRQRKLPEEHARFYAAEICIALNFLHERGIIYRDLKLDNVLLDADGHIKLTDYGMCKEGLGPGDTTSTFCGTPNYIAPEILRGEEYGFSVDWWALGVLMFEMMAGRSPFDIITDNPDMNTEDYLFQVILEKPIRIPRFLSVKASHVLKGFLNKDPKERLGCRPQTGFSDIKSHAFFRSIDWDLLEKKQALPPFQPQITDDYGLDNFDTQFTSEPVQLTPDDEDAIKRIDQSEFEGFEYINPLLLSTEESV

B1: PRE 3 (peptide)
peptide: Ac-AKGIQEVKGGDAQNLIGISI-NH2
notes: Synthetic peptide; also called peptide PRE 3
B2: PRE 7 (peptide)
peptide: Ac-ISIGILQNADK-NH2
notes: Synthetic peptide (retro form of PRE 4); also called peptide PRE 7
B3: PRE 4 (peptide)
peptide: Ac-KDAQNLIGISI-NH2
notes: Synthetic peptide; also called peptide PRE 4
B4: PRE 12 (peptide)
peptide: Ac-KDAQNLI-NH2
notes: Synthetic peptide; also called peptide PRE 12; Ac-KDAQNLI-NH2
B5: PRE 13 (peptide)
peptide: Ac-RDAQNLI-NH2
notes: Synthetic peptide; also called peptide PRE 13; Ac-RDAQNLI-NH2
B6: PRE 6 (peptide)
peptide: Ac-KDANQLIGISI-NH2
notes: Synthetic peptide; also called peptide PRE 6
B7: PRE 11 (peptide)
peptide: Ac-RDAQNLIGISI-NH2
notes: Synthetic peptide; also called peptide PRE 11

target: T2, PKC-βI (purified isoform) (Homo sapiens (Human), UniProt P05771 2-671); experiment: competitive ELISA on purified PKC-βI vs anti-PKC-βI Ab; PRE 200 µM
T2 construct: also called PKC-beta I
T2 sequence (P05771 2-671 limits assumed): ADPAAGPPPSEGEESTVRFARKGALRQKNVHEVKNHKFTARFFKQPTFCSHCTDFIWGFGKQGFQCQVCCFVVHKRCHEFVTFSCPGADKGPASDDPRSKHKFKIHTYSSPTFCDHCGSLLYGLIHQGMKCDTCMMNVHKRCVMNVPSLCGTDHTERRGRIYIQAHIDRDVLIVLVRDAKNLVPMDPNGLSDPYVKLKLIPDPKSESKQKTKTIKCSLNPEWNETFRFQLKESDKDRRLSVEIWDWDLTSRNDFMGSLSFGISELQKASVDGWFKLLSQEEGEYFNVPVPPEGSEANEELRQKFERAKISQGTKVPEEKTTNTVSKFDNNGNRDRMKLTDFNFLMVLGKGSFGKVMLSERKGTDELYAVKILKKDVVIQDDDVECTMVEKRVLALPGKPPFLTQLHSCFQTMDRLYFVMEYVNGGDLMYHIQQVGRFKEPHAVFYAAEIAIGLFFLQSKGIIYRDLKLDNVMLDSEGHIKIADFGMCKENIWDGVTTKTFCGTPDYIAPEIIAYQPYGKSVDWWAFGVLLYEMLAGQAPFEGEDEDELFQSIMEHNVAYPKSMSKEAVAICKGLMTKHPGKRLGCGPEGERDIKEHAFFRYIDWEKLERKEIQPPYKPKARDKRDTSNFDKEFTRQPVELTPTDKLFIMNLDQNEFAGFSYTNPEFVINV
Protocol: (§1) Greiner 96 well ELISA plates were coated with the appropriate PKC isoform diluted in PBSN (PBS with Calcium/Magnesium+0.05% Sodium azide w/w). 50 μL/well at 250 ng/mL was used. Control wells contained PBSN only. Plates were incubated overnight at 4° C.
(§2) The plates were washed 3 times with 200 μL of dH₂O per well, then 100 μL of blocking solution was added per well and the plate incubated for 1 h at 37° C. The washing steps with dH₂O were repeated and 50 μL of the appropriate PRE solution (PRE stock solution [20 mM in DMSO] diluted in PBSN) was added and the plate incubated for 1 h at room temperature.
(§3) 50 μL of 1:1000 dilution of Alkaline Phosphatase (AP) conjugated antibody (anti-rabbit for all except zeta, which was anti-goat) was then added and the plate incubated for 1 h at room temperature. Washing with dH₂O was then repeated. Finally, 100 μL of pNPP solution in pNPP buffer (2 mM MgCl₂, 100 mM Sodium bicarbonate in water, pH 9.8) was added to all wells and incubated for 8 minutes for α, βI, βII ε, and ζ, or for 15-20 mins for […] (until sufficient coloration is observed). The reaction was stopped by addition of Stop solution (2N NaOH) and the absorbance at 405 nm was read on a Galaxy Plate reader.

binding capacity (%)	Binder
23	B1
0	B2
7.46	B3
0	B4
0	B5
6.14	B6

target: T1, PKC-ζ (purified isoform); experiment: competitive ELISA on purified PKC-ζ vs anti-PKC-ζ Ab; PRE 50 µM
Protocol: as §1, §2, §3

binding capacity (%)	Binder
14	B1
1.83	B2
0	B3
0	B7
0	B5
0	B6

target: T1, PKC-ζ (purified isoform); experiment: competitive ELISA on purified PKC-ζ vs anti-PKC-ζ Ab; PRE 100 µM
Protocol: as §1, §2, §3

binding capacity (%)	Binder
23.9	B1
0	B2
0	B3
0	B7
0	B5
0	B6

target: T3, PKC-δ (purified isoform) (Homo sapiens (Human), UniProt Q05655 1-676); experiment: competitive ELISA on purified PKC-δ vs anti-PKC-δ Ab; PRE 100 µM
T3 construct: also called PKC-delta; PKCdelta
T3 sequence (Q05655 whole entry, stated change not applied, canonical isoform): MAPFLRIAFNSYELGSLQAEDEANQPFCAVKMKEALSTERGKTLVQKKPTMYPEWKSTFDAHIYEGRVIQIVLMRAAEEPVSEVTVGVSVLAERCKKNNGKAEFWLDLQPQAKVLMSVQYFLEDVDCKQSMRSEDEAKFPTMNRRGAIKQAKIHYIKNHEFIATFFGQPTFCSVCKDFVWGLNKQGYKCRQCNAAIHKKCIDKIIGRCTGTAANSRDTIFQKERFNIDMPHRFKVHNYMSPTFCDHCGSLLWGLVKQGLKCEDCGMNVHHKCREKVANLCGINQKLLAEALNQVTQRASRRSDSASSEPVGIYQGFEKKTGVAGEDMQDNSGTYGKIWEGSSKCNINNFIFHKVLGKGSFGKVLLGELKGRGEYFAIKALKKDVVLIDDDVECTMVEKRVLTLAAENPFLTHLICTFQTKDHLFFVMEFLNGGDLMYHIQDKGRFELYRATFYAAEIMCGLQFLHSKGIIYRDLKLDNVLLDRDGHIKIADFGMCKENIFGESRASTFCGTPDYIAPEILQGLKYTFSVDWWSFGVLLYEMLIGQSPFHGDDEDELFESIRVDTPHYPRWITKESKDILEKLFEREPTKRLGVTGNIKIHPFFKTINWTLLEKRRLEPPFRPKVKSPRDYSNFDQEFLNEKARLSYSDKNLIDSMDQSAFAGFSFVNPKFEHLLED
Protocol: as §1, §2, §3

binding capacity (%)	Binder
56	B1
0	B2
30.7	B3
21.5	B7
1.02	B4
0.79	B5
13.2	B6

target: T2, PKC-βI (purified isoform); experiment: competitive ELISA on purified PKC-βI vs anti-PKC-βI Ab; PRE 50 µM
Protocol: as §1, §2, §3

binding capacity (%)	Binder
26	B1
2.1	B2
6.02	B3
0.79	B4
0	B5
0	B6

target: T2, PKC-βI (purified isoform); experiment: competitive ELISA on purified PKC-βI vs anti-PKC-βI Ab; PRE 100 µM
Protocol: as §1, §2, §3

binding capacity (%)	Binder
22.5	B1
0	B2
15.7	B3
0	B4
0	B5
7.93	B6

target: T3, PKC-δ (purified isoform); experiment: competitive ELISA on purified PKC-δ vs anti-PKC-δ Ab; PRE 50 µM
Protocol: as §1, §2, §3

binding capacity (%)	Binder
48.3	B1
3.06	B2
29.2	B3
34.1	B7
2.26	B4
0	B5
17.5	B6

target: T4, PKC-βII (purified isoform) (Homo sapiens (Human), UniProt P05771 2-621); experiment: competitive ELISA on purified PKC-βII vs anti-PKC-βII Ab; PRE 50 µM
T4 construct: also called PKC-beta II
T4 sequence (P05771 other isoform, or with tags, fused parts or gaps limits assumed): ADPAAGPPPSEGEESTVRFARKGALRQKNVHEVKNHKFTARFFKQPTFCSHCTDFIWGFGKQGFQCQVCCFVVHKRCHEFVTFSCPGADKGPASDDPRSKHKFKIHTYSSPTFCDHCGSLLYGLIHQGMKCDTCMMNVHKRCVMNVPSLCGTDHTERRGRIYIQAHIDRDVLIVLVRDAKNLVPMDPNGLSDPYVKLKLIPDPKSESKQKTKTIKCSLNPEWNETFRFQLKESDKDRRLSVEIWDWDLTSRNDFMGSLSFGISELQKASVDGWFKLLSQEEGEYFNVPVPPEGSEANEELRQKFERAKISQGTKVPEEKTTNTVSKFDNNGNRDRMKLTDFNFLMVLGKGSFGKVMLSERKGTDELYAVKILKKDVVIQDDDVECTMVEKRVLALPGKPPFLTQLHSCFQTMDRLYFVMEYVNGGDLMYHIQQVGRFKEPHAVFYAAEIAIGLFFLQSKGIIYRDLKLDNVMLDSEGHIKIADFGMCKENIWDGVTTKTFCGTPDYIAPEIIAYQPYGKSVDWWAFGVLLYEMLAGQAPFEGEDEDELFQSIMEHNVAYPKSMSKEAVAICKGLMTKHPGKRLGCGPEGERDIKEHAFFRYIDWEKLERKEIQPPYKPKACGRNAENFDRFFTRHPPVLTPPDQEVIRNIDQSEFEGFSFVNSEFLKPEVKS
Protocol: as §1, §2, §3

binding capacity (%)	Binder
2.69	B3
0	B5
0.08	B6

target: T4, PKC-βII (purified isoform); experiment: competitive ELISA on purified PKC-βII vs anti-PKC-βII Ab; PRE 200 µM
Protocol: as §1, §2, §3

binding capacity (%)	Binder
1.18	B3
0	B5
0	B6

target: T5, PKC-α (endogenous, human cell lysates and cells) (human, UniProt P17252 2-672); experiment: anti-PKC-α immunofluorescence, V5E-transfected IMR-32 cells loaded with PRE (label on PKC-α and V5E); control with endocytosis reagent 113
T5 construct: Endogenous protein of human cell lysates, on Western blot membranes (denatured) or in fixed cells; also called PKC-alpha; PKC-A
Text: Neuroblastoma cells from the IMR-32 cell line were stably transfected with a vector containing the V5E sequence of PKC-α as outlined above in Example 13. The V5E sequence is part of the antigenic amino acid sequence that is used to raise the commercially available anti-PKC-α isoform-specific antibody.
The peptides PRE 1, 2, 3, 4, 5, 6, 7, 8, 9, 10, 11, 12 and 13 (see Table 3) were incorporated into the transfected IMR-32 cells via pinocytic endocytosis (Molecular Probes) according to the supplier's recommendations. Following fixation and permeabilization, PKC-α was detected using an Alexa fluor secondary antibody (as described above in Example 8).

Relative Fluorescence Intensity	Binder
83	B1
75	B2
79	B3
131	B7
124	B4
73	B6

target: T1, PKC-ζ (purified isoform); experiment: competitive ELISA on purified PKC-ζ vs anti-PKC-ζ Ab; PRE 200 µM
Protocol: as §1, §2, §3

binding capacity (%)	Binder
29.1	B1
1.54	B2
5.85	B3
0	B7
4.29	B5
0	B6

target: T3, PKC-δ (purified isoform); experiment: competitive ELISA on purified PKC-δ vs anti-PKC-δ Ab; PRE 200 µM
Protocol: as §1, §2, §3

binding capacity (%)	Binder
57	B1
0	B2
17.3	B3
18.7	B7
23.5	B4
17.9	B5
14	B6
